What all share (experiment): single-molecule FRET
Conditions in all cases: 5' m7GpppAm cap named for viral RNA; 3' poly(A) of unstated length

One data set deals with Cy5-eIF4E (Homo sapiens).
Data set [1] has as its system Cy5-eIF4E(S209D) (Homo sapiens).
For data set [2], the target named is Cy5-eIF4E(S209D);eIF4G(557-1137);eIF4A (Homo sapiens;Homo sapiens;Homo sapiens) (UniProt Q04637).
The target of data set [3] is Cy5-eIF4E;eIF4G(557-1137);eIF4A (Homo sapiens;Homo sapiens;Homo sapiens) (UniProt Q04637).

The term Kd denotes a measure of binding affinity in units of concentration. Regarding capped polyadenylated SARS-CoV-2 5' UTR, the Kd in the data set on Cy5-eIF4E (Homo sapiens) turned out to be 74 nM; in data set [1], 62 nM; in data set [2], 78 nM; in data set [3], 127 nM.

These data come from paper doi:10.1101/2021.05.26.445185.
